Earlier results in PMC5606850.

Molecular target: HTLV-1 nucleocapsid NTD (Human T-cell leukemia virus type 1) (UniProt P03345)
Sequence (P03345 345-395): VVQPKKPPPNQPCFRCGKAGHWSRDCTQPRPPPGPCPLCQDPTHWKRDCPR

Sequence of HTLV-1 nucleocapsid CTD (P03345 396-429): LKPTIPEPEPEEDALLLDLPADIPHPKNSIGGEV

For “HTLV-1 nucleocapsid CTD (from UniProt P03345)”, which Kd is on record?
Its Kd is 200 nM.
